Ends that are not written are not given here.
What was measured:
CTGF = assay: DGC labelling of CTGF in cells by fluorescence imaging (CLSM); format: cell-based; conditions: for FL Intensity of DGC per cell: 55 μM DGC 60 min, CLSM
Protocol: The U87MG, SH-SY5Y, and CTX TNA2 cells in confocal dishes were fixed with 4% paraformaldehyde solution (PFA) for 30 min. Next, the cells were washed with cold PBS three times, and 3% BSA in PBS solution was introduced to the cells to block the nonspecific recognition sites. Then, the cells were incubated with 55 μM DGC for 60 min at room temperature. The control cells were only incubated with a culture medium. Next, the nuclei were stained with 5 μg/mL DAPI solution for 5 min. Finally, the cells were observed by a confocal laser scanning microscope (CLSM, PerkinElmer, USA). The fluorescence intensity of each cell was measured by ImageJ software, the red channel was extracted by clicking Split Channels, and the red fluorescent region, except the nucleus was selected by Freehand selections. Then the average fluorescence intensity in this region was measured and recorded for statistical analysis.
To further determine the specificity of DGC to CTGF, immunofluorescence staining was performed with CTGF antibodies to determine the location of CTGF in cells. First, U87MG cells in confocal dishes were fixed with 4% PFA for 30 min. Next, the cells were washed with PBS three times, and 3% bovine serum albumin (BSA) in PBS solution. Then, the cells were incubated with CTGF antibody (dilution 1:100, Abcam, Cat#ab6992) in PBS for 4 h at 4 °C, and FITC-labeled Goat Anti-Rabbit IgG (H + L) (1: dilution 1:200, Bioss, Cat#bs-0370R-FITC) in 3% BSA solution was added to the cells for another 30 min at 37 °C in the dark. Subsequently, 55 μM DGC were incubated with the cells for 1 h. Finally, the cells were stained with DAPI for 5 min and washed with PBS before the CLSM image (Nikon).
Moreover, a binding site blocking study was performed to confirm the specificity of the DGC to CTGF. First, U87MG cells were fixed with 4% PFA. Then, a PBS solution containing 3% BSA was used to block the nonspecific recognition sites for 30 min. After BSA blocking, the cells were pre-incubated with 5 mM of free DAG peptide for 1 h, followed by 55 μM DGC added for 60 min. Then, DAPI (5 μg/mL) was added to U87MG cells to stain the nuclei. Finally, the cells were imaged by the CLSM system.

[1] = Biodistribution of DGC in organs by ex vivo NIR-II imaging; design: species or system APP/PS1 and wild-type mice; conditions: ex vivo NIR-II observation of major organs
Protocol: Mice were then perfused intracardially with saline and 4% PFA, and major organs (including the brain, heart, liver, spleen, lung, and kidney were isolated. The dissociated brains were performed NIR-II imaging ex vivo using the same method as in vivo imaging (n = 3). All isolated organs were also imaged by the NIR-II imaging system (λ ex = 808 nm, 1000 nm longpass (LP) filter (Edmund Optics)). And then, the brains were kept in 4% PFA overnight and embedded with paraffin. Sections with 5-μm thickness were cut and analyzed by immunostaining with antibodies to CTGF (dilution 1: 50, Abcam, Cat#ab6992), GFAP (dilution 1:100, Proteintech, Cat#16825-1-AP), CD31 (dilution 1:200, Beyotime, Cat#AF6408), Neun (dilution 1:300, abcam, Cat# ab177487), and Iba 1 (dilution 1:50, Beyotime, Cat# AF7143), respectively.

SH-SY5Y cells = assay: Cytotoxicity of DGC (CCK-8); format: cell-based; design: key to Cell viability: viability relative to control cells (control = 1); conditions: for Cell viability: 24 h, CCK-8, normalized to control
Protocol: U87MG, SH-SY5Y, and CTX TNA2 cells were seeded into 96-well plates at a density of 5 × 10^3 cells per well and were incubated at 37 °C for 24 h. […] Next, 10 µL of a colorimetric Cell Counting Kit (CCK-8) reagent diluted with 100 µL medium was added to each well, and incubated for 30 min, The absorbance at 450 nm was measured using a microplate reader (Molecular Devices, San Jose, CA, USA). The relative viability was normalized to control cells. The experiment was performed in triplicates.

Q: For “DGC: CTGF-targeting peptide-coated gold nanocluster: one Au26 gold nanocluster coated by eight DAG cyclic peptides, NIR-II and red fluorescence (CDAGRKQKC; also: cyclic peptide, ring not given here, eight peptides on one Au26 nanocluster via Cys Au-S bonds)”, which “labelling of CTGF after blocking with free DAG peptide” value (CTGF; U87MG cells pre-incubated with 5 mM free DAG 1 h, then 55 μM DGC 60 min) is on record?
A: cannot label CTGF in cells pre-blocked by free DAG peptides

Q: And the “co-localization coefficient (Pearson's correlation coefficient) of DGC and CTGF antibody” value (CTGF; U87MG cells, ImageJ)?
A: 0.946

Q: What about the “FL Intensity of DGC per cell” value (CTGF; fixed CTX TNA2 cells, replicate 1) of the same substance?
A: 5.779

Q: And the “FL Intensity of DGC per cell” value (CTGF; fixed CTX TNA2 cells, replicate 2)?
A: 3.821

Q: What about the “FL Intensity of DGC per cell” value (CTGF; fixed CTX TNA2 cells, replicate 3) of the same substance?
A: 8.33

Q: What about the “FL Intensity of DGC per cell” value (CTGF; fixed SH-SY5Y cells, replicate 1) of the same substance?
A: 14.6594

Q: What about the “FL Intensity of DGC per cell” value (CTGF; fixed SH-SY5Y cells, replicate 2) of the same substance?
A: 16.8684

Q: And the “FL Intensity of DGC per cell” value (CTGF; fixed SH-SY5Y cells, replicate 3)?
A: 12.4094

Q: What about the “FL Intensity of DGC per cell” value (CTGF; fixed U87MG cells, replicate 1) of the same substance?
A: 36.9955

Q: What about the “FL Intensity of DGC per cell” value (CTGF; fixed U87MG cells, replicate 2) of the same substance?
A: 33.5045

Q: What about the “FL Intensity of DGC per cell” value (CTGF; fixed U87MG cells, replicate 3) of the same substance?
A: 35.4955

Q: And the “metabolism and excretion route” value [1]?
A: mainly metabolized by the liver and excreted through the kidney and liver

Q: What about the Cell viability (SH-SY5Y cells; 5 μM (Au content), replicate 1) of the same substance?
A: 1.078

Q: And the Cell viability (SH-SY5Y cells; 5 μM (Au content), replicate 2)?
A: 1.039

Q: What about the Cell viability (SH-SY5Y cells; 5 μM (Au content), replicate 3) of the same substance?
A: 1.074

Q: What about the Cell viability (SH-SY5Y cells; 10 μM (Au content), replicate 1) of the same substance?
A: 0.9372

Q: And the Cell viability (SH-SY5Y cells; 10 μM (Au content), replicate 2)?
A: 1.045

Q: What about the Cell viability (SH-SY5Y cells; 10 μM (Au content), replicate 3) of the same substance?
A: 1.038

Q: What about the Cell viability (SH-SY5Y cells; 20 μM (Au content), replicate 1) of the same substance?
A: 1.029

Q: And the Cell viability (SH-SY5Y cells; 20 μM (Au content), replicate 2)?
A: 1.021

Q: What about the Cell viability (SH-SY5Y cells; 20 μM (Au content), replicate 3) of the same substance?
A: 1.039

Q: And the Cell viability (SH-SY5Y cells; 50 μM (Au content), replicate 1)?
A: 1.012

Q: What about the Cell viability (SH-SY5Y cells; 50 μM (Au content), replicate 2) of the same substance?
A: 1.009

Q: And the Cell viability (SH-SY5Y cells; 50 μM (Au content), replicate 3)?
A: 1.025

Q: And the Cell viability (SH-SY5Y cells; 100 μM (Au content), replicate 1)?
A: 0.9429

Q: And the Cell viability (SH-SY5Y cells; 100 μM (Au content), replicate 2)?
A: 0.9751

Q: What about the Cell viability (SH-SY5Y cells; 100 μM (Au content), replicate 3) of the same substance?
A: 1.036

Q: What about the Cell viability (SH-SY5Y cells; 200 μM (Au content), replicate 1) of the same substance?
A: 0.977

Q: What about the Cell viability (SH-SY5Y cells; 200 μM (Au content), replicate 2) of the same substance?
A: 1.039

Q: And the Cell viability (SH-SY5Y cells; 200 μM (Au content), replicate 3)?
A: 0.9912

Q: And the Cell viability (SH-SY5Y cells; 500 μM (Au content), replicate 1)?
A: 0.9817

Q: What about the Cell viability (SH-SY5Y cells; 500 μM (Au content), replicate 2) of the same substance?
A: 0.9959

Q: And the Cell viability (SH-SY5Y cells; 500 μM (Au content), replicate 3)?
A: 1.057

Q: What about the cytotoxicity (SH-SY5Y cells; DGC incubation 24 h, CCK-8) of the same substance?
A: did not cause any obvious cytotoxicity
